What was measured:
[1] = target: mini-HA complex (HA70^D3–HA17–HA33) (Clostridium botulinum strain 62A (BoNT/A1-producing)) (UniProt Q45871); assay: […], pH 7.6 with 100 mM NaCl; […]
[2] = target: HA complex (HA70–HA17–HA33), recombinant, reconstituted in vitro (Clostridium botulinum strain 62A (BoNT/A1-producing)) (UniProt Q45871); assay: […], pH 7.6 with 100 mM NaCl; […]
[3] = target: HA33 (full-length, residues M1–P293), expressed alone (Clostridium botulinum strain 62A (BoNT/A1-producing)) (UniProt P0DPR0); assay: AUC
[4] = target: HA70 of BoNT/A (full-length, residues M1–N626) (Clostridium botulinum strain 62A (BoNT/A1-producing)); assay: AUC

## mini-HA complex (HA70^D3–HA17–HA33) (from UniProt Q45871 1-293)
[1]
  Kd: 23.1 µM

## HA complex (HA70–HA17–HA33), recombinant, reconstituted in vitro (from UniProt Q45871 1-293)
[2]
  Kd: 10.9 µM

## HA33 (full-length, residues M1–P293), expressed alone (from UniProt P0DPR0 1-286) (natural protein)
[3]
  stoichiometry N: 2

## HA70 of BoNT/A (full-length, residues M1–N626) (natural protein)
[4]
  stoichiometry N (HA70 chains in the oligomer): 3

Source: PMC3795040
